According to US11230704B2, “Oxidation of highly unsaturated fatty acids with novel 8-lipoxygenase derived from Malacostraca” (Bizen Chemical Co., Ltd., priority 2018, dated 2022):

Assays:
[1] = tested on: peroxisome proliferator-activated receptor (PPAR); settings: background statement, Non Patent Literature 1; cited from earlier work
[2] = Measurement of activity of PK LOX1: docosahexaenoic acid added to medium of PK LOX1 expressing Sf9 insect cells, LC-QTOFMS of cell extract; type: cell-based; settings: 50 μM, 4 hours; FIG. 6C
Experimental: (§1) A P1 baculovirus stock prepared by cryopreserving a culture supernatant of Sf9 insect cells transduced with bacmid expressing PK LOX1 was added to a medium of Sf9 insect cells and cultured for 1 week. 50 μM of arachidonic acid, eicosapentaenoic acid, or docosahexaenoic acid was added to the medium of baculovirus infected cells, and the cells were centrifuged and collected after 4 hours of culture. After removing the medium from the Sf9 cells and adding acetonitrile to the cells and sonicating the cells, the solution was centrifuged for 10 minutes at 20,000 g, and the supernatant was used as an extract. 5 μL of the extract was subjected to high performance liquid chromatography/mass spectrometry system (LC-QTOFMS: Agilent) to analyze 8-HETE, 8-HEPE, and 10-HDoHE. […] The 8-HETE content after adding an arachidonic acid, 8-HEPE content after adding an eicosapentaenoic acid, and 10-HDoHE content after adding a docosahexaenoic acid are higher in a PK LOX1 expressing Sf9 insect cell extract compared to an extract of EGFP expressing Sf9 insect cells used as a control. It was confirmed that 8-HETE, 8-HEPE, and 10-HDoHE production is induced by PK LOX1 expression (FIG. 6C).

[3] = Measurement of activity of PK LOX1: arachidonic acid added to medium of PK LOX1 expressing Sf9 insect cells, LC-QTOFMS of cell extract; type: cell-based; settings: 50 μM, 4 hours; FIG. 6C
Experimental: as §1

[4] = Measurement of activity of PK LOX1: EPA added to medium of PK LOX1 expressing Sf9 insect cells, LC-QTOFMS of cell extract; type: cell-based
Experimental: as §1

[5] = Measurement of activity of PK LOX2: thawed PK LOX2 expressing Sf9 cell pellets incubated with EPA, LC-QTOFMS; type: biochemical, Sf9 cells
Experimental: A baculovirus stock expressing PK LOX2 obtained by the same method as PK LOX1 in Example 3 was prepared. Sf9 cells were infected therewith. After washing the Sf9 cells after two days from infection with PBS and centrifuging the cells at 1500 g, the cells were frozen at −80° C. after removing the PBS. 50 μL of 200 mM Tris-HCl (pH of 7.4) supplemented with EPA at a concentration of 50 μM was added to PK LOX2 expressing Sf9 cell pellets thawed on ice, and the pellets were incubated for 4 hours at 27° C. After adding 150 μL of acetonitrile (containing 1% formic acid) to the incubated solution and vortexing the solution, the solution was centrifuged for 10 minutes at 4° C. at 20,000 g. The supernatant was collected and 5 μL thereof was subjected to LC-QTOFMS to analyze 8-HEPE.

Question: For `CCC=CCC=CCC=CC=CC(O)CC=CCCCC(=O)O` (centres unmarked) [8-HEPE, 8-hydroxyeicosapentaenoic acid], which “PPAR activating action compared with EPA” value [1] is on record?
Answer: The value was “higher peroxisome proliferator-activated receptor (PPAR) activating action than EPA”.

B1: PK LOX1: lipoxygenase isolated from Euphausia pacifica, 691 amino acids, SEQ ID NO: 2, expressed His-tagged in Sf9 insect cells (protein, listed as Euphausia pacifica)
chain: MAPIKEKKSFKLTAATGNQDGAGTDANVYVTFEDEEGRRTKEKKLDKLLYNDLEKGKKDKYDINAPVEFGAVKKLHVHRDSTGLGDSWFCDYFEIKDLRFKGNNNEPSPTKKEYYYFPIHRWISSQHRYEFDEYGTCLPQADPCIGPRKADLEAKKSSYNYVYRIGAMAATDTTDACVGHCAQVETLPADEKFSEDYYWNFATDKLKLLAETKWMEWTNQTKWNSLSDLRSVYKKSLGEPKCLDVWREDWWFGLQRLQGVNPVIIELCTQIPDNLAVTDTTVEGLMDDLTLNEALENKKIFICDLKIMDGLCCKENRELAAPLALFYLNKENKLLPIALQLKQEKGDDNPVFTPKDSKNTWLVAKMFYNNSEAQHHQALTHLGYTHLLMEGVVVCTHRNLSPSHPLFKLMAPHFLFLLAINSRGLEKLVSEGGWVDCCMTQGLCGILDLMKRGFEAWTYTKFGSVSAELEARGVLNKDVLPYYPYRDDALPLFAEIRKYVKTIVEHHYDNEDKMKEDWELKSWREELAKQRSENGVGLADIPGSKEDGFNSVDEVVDVVTMIISTCSLGHAASNFQQYEQYGYVPNYPGILMSTLPKEKKEYTEEEIMQILPDKRMTLDIMVITKLLSTKGTQSLGDFEMQYLYDPVGVQAAKDFRKNLDRLSKKNKLENVDRQWDFDWLDPEFVPNAISV
modifications: His tag
Question: For B1, which “10-HDoHE content after adding a docosahexaenoic acid, compared to extract of EGFP expressing Sf9 insect cells (control)” value [2] is on record?
Answer: Its value is “higher”.

Question: And the “8-HETE content after adding an arachidonic acid, compared to extract of EGFP expressing Sf9 insect cells (control)” value [3]?
Answer: The value was “higher”.

Question: What about the “8-HEPE content after adding an eicosapentaenoic acid, compared to extract of EGFP expressing Sf9 insect cells (control)” value ([4]; 50 μM, 4 hours, FIG. 6C) of the same molecule?
Answer: The value was “higher”.

Question: What about the “production of 8-HEPE in cell extract” value ([4]; EPA 50 μM added, 4 hours of culture, FIG. 6A) of the same molecule?
Answer: The value was “Production of 8-HEPE was observed”.

Question: And the “activity compared with specific activity of lipoxygenases known in the art” value ([4]; PK LOX1 expressing Sf9 cells)?
Answer: The value was “markedly stronger than the specific activity of lipoxygenases known in the art”.

Question: And the “position specificity of oxidation of EPA” value ([4]; only one peak of m/z=317.22, retention time and MS/MS match 8-HEPE standard, FIG. 6A, 6B)?
Answer: Its value is “catalyzed position 8 specific oxidation of EPA”.

Question: What about the “specific activity of lipoxygenase (8-HEPE/PK LOX1 expressing Sf9 cell protein)” value ([4]; printed as 'up to about', 50 μM substrate, 4 hours of culture, FIG. 6C) of the same molecule?
Answer: The value was “about 2.5 μg/mg”.

B2: PK LOX2: lipoxygenase isolated from Euphausia pacifica, 686 amino acids, SEQ ID NO: 4, expressed His-tagged in Sf9 insect cells (protein, listed as Euphausia pacifica)
chain: MVALRCFKPEEMHIFTICGLFLAAMEVSNAYLCNNNFLVTVKTGYGTDAGSNASVILVLEDQNRNEIRNWLSIPKQDETGNHRIPIPTSFGRIVTVELALDYKLAPDWYCEDIFIEDPRLNDRLYFPIDRRIQGNQFYDFQNYATCLPQFDQNSISRRLTLQKKREDYQLSYDRTAAMVKDLPQDEIFHQDYISSIRAIQKTSIDDQIPLLQAWQSSNNISAFFGGDFYMPQSIQFWKEDAWFGAQRVQGIVPNIIELCKQIPDKLGVTEDTISGLLEGSTLQQALKNNKIFISDLELLDGIQYSGVWSDNADHAAPISVFYLNKIDQLMPIAIQLRQQKGPKNPVYTPKDPPNTWLVAKIYYNNAESQFHQILVHFGYTHMIMDGIATSMNRQLSPSHPVFKILKPHFLYLLAINRLGEQELFVPQGVFPYFSIGLDGMNQLLAKAVPQFTLARAIGSVESDARARGVWDKQVLPYYPFRDDAHSMYNIIKKYATKVIYYYYNTPGKIINDMELQRWRTELAKPRAQGGVGIPDLPGSDTAGFRDINEIIDLVTTIITHSSVGHAAVNFPMYDTYGYFPNYPPDLNEGPPLQKMLYTEDEIMSLFPNGSHAFRVRATIRVLSWQGTNDCGDFEKIYLYDPVSQEAQVELRKDLAMFSKEVMNRNSKRFIPYKYLDPNYVPNAISI
modifications: His tag
Question: Which 8-HEPE production ([5]; EPA 50 μM, 4 hours at 27° C., FIG. 7) does the source give for B2 here?
Answer: The 8-HEPE production was 8-HEPE production was observed.

Question: What about the “activity compared with specific activity of lipoxygenases known in the art” value ([5]; PK LOX2 expressing Sf9 cells) of the same molecule?
Answer: The value was “markedly stronger than the specific activity of lipoxygenases known in the art”.

Question: And the “specific activity of lipoxygenase (8-HEPE/PK LOX2 expressing Sf9 cell protein)” value ([5]; printed as 'up to about', EPA 50 μM, 200 mM Tris-HCl pH 7.4, 4 hours at 27° C., FIG. 7)?
Answer: Its value is “about 3.2 ng/mg”.
